Test results from article PMC4749553 (2015).

Biological target: T1, His6-Tim44(43–263) (Saccharomyces cerevisiae (strain ATCC …, UniProt Q01852))
T1 chain: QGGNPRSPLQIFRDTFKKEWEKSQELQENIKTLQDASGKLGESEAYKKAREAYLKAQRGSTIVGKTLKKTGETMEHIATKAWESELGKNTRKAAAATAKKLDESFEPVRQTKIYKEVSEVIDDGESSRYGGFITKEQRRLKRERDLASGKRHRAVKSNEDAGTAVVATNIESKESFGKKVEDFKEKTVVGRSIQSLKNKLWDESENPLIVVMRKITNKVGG
Assay: Ni-NTA pull-down, Coomassie-stained SDS-PAGE

B1: Tim44(211–431) (protein)
chain: NIESKESFGKKVEDFKEKTVVGRSIQSLKNKLWDESENPLIVVMRKITNKVGGFFAETESSRVYSQFKLMDPTFSNESFTRHLREYIVPEILEAYVKGDVKVLKKWFSEAPFNVYAAQQKIFKEQDVYADGRILDIRGVEIVSAKLLAPQDIPVLVVGCRAQEINLYRKKKTGEIAAGDEANILMSSYAMVFTRDPEQIDDDETEGWKILEFVRGGSRQFT
binding result: no binding
